Measurements published in the supplement of paper PMC5998384.

How the values were obtained:
HeLa Kyoto [1] = assay: melting temperature (median over replicates), in situ; higher = more thermally stable
HeLa Kyoto [2] = assay: solubility change mitosis vs G1/S (difference of NP-40 vs SDS log2 ratios) (log2 ratio difference); higher = more soluble in mitosis
HeLa Kyoto [3] = assay: solubility in G1/S (NP-40 vs SDS abundance) (log2 ratio); higher = more soluble; conditions: cell cycle stage: G1/S
HeLa Kyoto [4] = assay: thermal stability score vs G1/S (z-score of summed log2 fold changes over temperatures); higher = more thermally stable than in G1/S
[5] = cell cycle stage: early G1 (4.5 h after nocodazole release)
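Throughout, for melting temperature (median over replicates), in situ: HeLa Kyoto cells synchronized by double thymidine or nocodazole block, proteins quantified by TMT10plex mass spectrometry, three independent biological replicates.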
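Throughout, for solubility change mitosis vs G1/S (difference of NP-40 vs SDS log2 ratios): synchronized HeLa Kyoto cells (double thymidine block for G1/S, nocodazole release for mitosis), protein amounts in NP-40 versus SDS lysates quantified by mass spectrometry, three biological replicates.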
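Throughout, for solubility in G1/S (NP-40 vs SDS abundance): HeLa Kyoto cells arrested at G1/S by double thymidine block, proteins quantified by TMT10plex mass spectrometry in mild NP-40 versus SDS extracts, three biological replicates.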
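Throughout, for thermal stability score vs G1/S (z-score of summed log2 fold changes over temperatures): synchronized HeLa Kyoto cells, proteins quantified by TMT10plex mass spectrometry, three biological replicates, mitosis taken 0.5 h after nocodazole release, G1/S directly after double thymidine block.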

Substance	melting temperature (HeLa Kyoto [1]; cell cycle stage: G1/S) [°C]	melting temperature (HeLa Kyoto [1]; cell cycle stage: mitosis) [°C]	solubility change mitosis (log2) (HeLa Kyoto [2])	solubility in G1/S (log2) (HeLa Kyoto [3])	thermal stability score (HeLa Kyoto [4]; [5])	thermal stability score (HeLa Kyoto [4]; cell cycle stage: mitosis)
MESRDPAQPMSPGEATQSGARPADRYGLLKHSREFLDFFWDIAKPEQETRLAATEKLLEYLRGRPKGSEMKYALKRLITGLGVGRETARPCYSLALAQLLQSFEDLPLCSILQQIQEKYDLHQVKKAMLRPALFANLFGVLALFQSGRLVKDQEALMKSVKLLQALAQYQNHLQEQPRKALVDILSEVSKATLQEILPEVLKADLNIILSSPEQLELFLLAQQKVPSKLKKLVGSVNLFSDENVPRLVNVLKMAASSVKKDRKLPAIALDLLRLALKEDKFPRFWKEVVEQGLLKMQFWPASYLCFRLLGAALPLLTKEQLHLVMQGDVIRHYGEHVCTAKLPKQFKFAPEMDDYVGTFLEGCQDDPERQLAVLVAFSSVTNQGLPVTPTFWRVVRFLSPPALQGYVAWLRAMFLQPDLDSLVDFSTNNQKKAQDSSLHMPERAVFRLRKWIIFRLVSIVDSLHLEMEEALTEQVARFCLFHSFFVTKKPTSQIPETKHPFSFPLENQAREAVSSAFFSLLQTLSTQFKQAPGQTQGGQPWTYHLVQFADLLLNHSHNVTTVTPFTAQQRQAWDRMLQTLKELEAHSAEARAAAFQHLLLLVGIHLLKSPAESCDLLGDIQTCIRKSLGEKPRRSRTKTIDPQEPPWVEVLVEILLALLAQPSHLMRQVARSVFGHICSHLTPRALQLILDVLNPETSEDENDRVVVTDDSDERRLKGAEDKSEEGEDNRSSESEEESEGEESEEEERDGDVDQGFREQLMTVLQAGKALGGEDSENEEELGDEAMMALDQSLASLFAEQKLRIQARRDEKNKLQKEKALRRDFQIRVLDLVEVLVTKQPENALVLELLEPLLSIIRRSLRSSSSKQEQDLLHKTARIFTHHLCRARRYCHDLGERAGALHAQVERLVQQAGRQPDSPTALYHFNASLYLLRVLKGNTAEGCVHETQEKQKAGTDPSHMPTGPQAASCLDLNLVTRVYSTALSSFLTKRNSPLTVPMFLSLFSRHPVLCQSLLPILVQHITGPVRPRHQACLLLQKTLSMREVRSCFEDPEWKQLMGQVLAKVTENLRVLGEAQTKAQHQQALSSLELLNVLFRTCKHEKLTLDLTVLLGVLQGQQQSLQQGAHSTGSSRLHDLYWQAMKTLGVQRPKLEKKDAKEIPSATQSPISKKRKKKGFLPETKKRKKRKSEDGTPAEDGTPAATGGSQPPSMGRKKRNRTKAKVPAQANGTPTTKSPAPGAPTRSPSTPAKSPKLQKKNQKPSQVNGAPGSPTEPAGQKQHQKALPKKGVLGKSPLSALARKKARLSLVIRSPSLLQSGAKKKAQVRKAGKP [MYBBP1A]	48.1	48.9	0.349	-0.42	0.7	2.36
MAESDWDTVTVLRKKGPTAAQAKSKQAILAAQRRGEDVETSKKWAAGQNKQHSITKNTAKLDRETEELHHDRVTLEVGKVIQQGRQSKGLTQKDLATKINEKPQVIADYESGRAIPNNQVLGKIERAIGLKLRGKDIGKPIEKGPRAK [EDF1]	55.2	52.7	0.78	0.119	-4.76	-6.66
HTT	50.6	50.7	-0.0881	-0.145	-0.714	-1.14
MLSEVLLVSAPGKVILHGEHAVVHGKVALAVSLNLRTFLRLQPHSNGKVDLSLPNIGIKRAWDVARLQSLDTSFLEQGDVTTPTSEQVEKLKEVAGLPDDCAVTERLAVLAFLYLYLSICRKQRALPSLDIVVWSELPPGAGLGSSAAYSVCLAAALLTVCEEIPNPLKDGDCVNRWTKEDLELINKWAFQGERMIHGNPSGVDNAVSTWGGALRYHQGKISSLKRSPALQILLTNTKVPRNTRALVAGVRNRLLKFPEIVAPLLTSIDAISLECERVLGEMGEAPAPEQYLVLEELIDMNQHHLNALGVGHASLDQLCQVTRARGLHSKLTGAGGGGCGITLLKPGLEQPEVEATKQALTSCGFDCLETSIGAPGVSIHSATSLDSRVQQALDGL [MVK]	53.8	54.3	0.006	0.173	-0.0917	0.34
MVDPVGFAEAWKAQFPDSEPPRMELRSVGDIEQELERCKASIRRLEQEVNQERFRMIYLQTLLAKEKKSYDRQRWGFRRAAQAPDGASEPRASASRPQPAPADGADPPPAEEPEARPDGEGSPGKARPGTARRPGAAASGERDDRGPPASVAALRSNFERIRKGHGQPGADAEKPFYVNVEFHHERGLVKVNDKEVSDRISSLGSQAMQMERKKSQHGAGSSVGDASRPPYRGRSSESSCGVDGDYEDAELNPRFLKDNLIDANGGSRPPWPPLEYQPYQSIYVGGMMEGEGKGPLLRSQSTSEQEKRLTWPRRSYSPRSFEDCGGGYTPDCSSNENLTSSEEDFSSGQSSRVSPSPTTYRMFRDKSRSPSQNSQQSFDSSSPPTPQCHKRHRHCPVVVSEATIVGVRKTGQIWPNDGEGAFHGDADGSFGTPPGYGCAADRAEEQRRHQDGLPYIDDSPSSSPHLSSKGRGSRDALVSGALESTKASELDLEKGLEMRKWVLSGILASEETYLSHLEALLLPMKPLKAAATTSQPVLTSQQIETIFFKVPELYEIHKEFYDGLFPRVQQWSHQQRVGDLFQKLASQLGVYRAFVDNYGVAMEMAEKCCQANAQFAEISENLRARSNKDAKDPTTKNSLETLLYKPVDRVTRSTLVLHDLLKHTPASHPDHPLLQDALRISQNFLSSINEEITPRRQSMTVKKGEHRQLLKDSFMVELVEGARKLRHVFLFTDLLLCTKLKKQSGGKTQQYDCKWYIPLTDLSFQMVDELEAVPNIPLVPDEELDALKIKISQIKNDIQREKRANKGSKATERLKKKLSEQESLLLLMSPSMAFRVHSRNGKSYTFLISSDYERAEWRENIREQQKKCFRSFSLTSVELQMLTNSCVKLQTVHSIPLTINKEDDESPGLYGFLNVIVHSATGFKQSSNLYCTLEVDSFGYFVNKAKTRVYRDTAEPNWNEEFEIELEGSQTLRILCYEKCYNKTKIPKEDGESTDRLMGKGQVQLDPQALQDRDWQRTVIAMNGIEVKLSVKFNSREFSLKRMPSRKQTGVFGVKIAVVTKRERSKVPYIVRQCVEEIERRGMEEVGIYRVSGVATDIQALKAAFDVNNKDVSVMMSEMDVNAIAGTLKLYFRELPEPLFTDEFYPNFAEGIALSDPVAKESCMLNLLLSLPEANLLTFLFLLDHLKRVAEKEAVNKMSLHNLATVFGPTLLRPSEKESKLPANPSQPITMTDSWSLEVMSQVQVLLYFLQLEAIPAPDSKRQSILFSTEV [BCR]	49	49.2	-0.114	-0.109	0.827	1.59
MTLTERLREKISRAFYNHGLLCASYPIPIILFTGFCILACCYPLLKLPLPGTGPVEFTTPVKDYSPPPVDSDRKQGEPTEQPEWYVGAPVAYVQQIFVKSSVFPWHKNLLAVDVFRSPLSRAFQLVEEIRNHVLRDSSGIRSLEELCLQVTDLLPGLRKLRNLLPEHGCLLLSPGNFWQNDWERFHADPDIIGTIHQHEPKTLQTSATLKDLLFGVPGKYSGVSLYTRKRMVSYTITLVFQHYHAKFLGSLRARLMLLHPSPNCSLRAESLVHVHFKEEIGVAELIPLVTTYIILFAYIYFSTRKIDMVKSKWGLALAAVVTVLSSLLMSVGLCTLFGLTPTLNGGEIFPYLVVVIGLENVLVLTKSVVSTPVDLEVKLRIAQGLSSESWSIMKNMATELGIILIGYFTLVPAIQEFCLFAVVGLVSDFFLQMLFFTTVLSIDIRRMELADLNKRLPPEACLPSAKPVGQPTRYERQLAVRPSTPHTITLQPSSFRNLRLPKRLRVVYFLARTRLAQRLIMAGTVVWIGILVYTDPAGLRNYLAAQVTEQSPLGEGALAPMPVPSGMLPPSHPDPAFSIFPPDAPKLPENQTSPGESPERGGPAEVVHDSPVPEVTWGPEDEELWRKLSFRHWPTLFSYYNITLAKRYISLLPVIPVTLRLNPREALEGRHPQDGRSAWPPPGPIPAGHWEAGPKGPGGVQAHGDVTLYKVAALGLATGIVLVLLLLCLYRVLCPRNYGQLGGGPGRRRRGELPCDDYGYAPPETEIVPLVLRGHLMDIECLASDGMLLVSCCLAGHVCVWDAQTGDCLTRIPRPGRQRRDSGVGSGLEAQESWERLSDGGKAGPEEPGDSPPLRHRPRGPPPPSLFGDQPDLTCLIDTNFSAQPRSSQPTQPEPRHRAVCGRSRDSPGYDFSCLVQRVYQEEGLAAVCTPALRPPSPGPVLSQAPEDEGGSPEKGSPSLAWAPSAEGSIWSLELQGNLIVVGRSSGRLEVWDAIEGVLCCSSEEVSSGITALVFLDKRIVAARLNGSLDFFSLETHTALSPLQFRGTPGRGSSPASPVYSSSDTVACHLTHTVPCAHQKPITALKAAAGRLVTGSQDHTLRVFRLEDSCCLFTLQGHSGAITTVYIDQTMVLASGGQDGAICLWDVLTGSRVSHVFAHRGDVTSLTCTTSCVISSGLDDLISIWDRSTGIKFYSIQQDLGCGASLGVISDNLLVTGGQGCVSFWDLNYGDLLQTVYLGKNSEAQPARQILVLDNAAIVCNFGSELSLVYVPSVLEKLD [SCAP]	53.4	52.8	-0.108	-0.105	-0.535	0.3
MGQTVNEDSMDVKKENQEKTPQSSTSSVQRDDFHWEEYLKETGSISAPSECFRQSQIPPVNDFKVGMKLEARDPRNATSVCIATVIGITGARLRLRLDGSDNRNDFWRLVDSPDIQPVGTCEKEGDLLQPPLGYQMNTSSWPMFLLKTLNGSEMASATLFKKEPPKPPLNNFKVGMKLEAIDKKNPYLICPATIGDVKGDEVHITFDGWSGAFDYWCKYDSRDIFPAGWCRLTGDVLQPPGTSVPIVKNIAKTESSPSEASQHSMQSPQKTTLILPTQQVRRSSRIKPPGPTAVPKRSSSVKNITPRKKGPNSGKKEKPLPVICSTSAASLKSLTRDRGMLYKDVASGPCKIVMSTVCVYVNKHGNFGPHLDPKRIQQLPDHFGPGPVNVVLRRIVQACVDCALETKTVFGYLKPDNRGGEVITASFDGETHSIQLPPVNSASFALRFLENFCHSLQCDNLLSSQPFSSSRGHTHSSAEHDKNQSAKEDVTERQSTKRSPQQTVPYVVPLSPKLPKTKEYASEGEPLFAGGSAIPKEENLSEDSKSSSLNSGNYLNPACRNPMYIHTSVSQDFSRSVPGTTSSPLVGDISPKSSPHEVKFQMQRKSEAPSYIAVPDPSVLKQGFSKDPSTWSVDEVIQFMKHTDPQISGPLADLFRQHEIDGKALFLLKSDVMMKYMGLKLGPALKLCYYIEKLKEGKYS [SCML2]	44.9	49.1	0.137	-0.0128	4.21	8.66
MKVTLSALDTSESSFTPLVVIELAQDVKEETKEWLKNRIIAKKKDGGAQLLFRPLLNKYEQETLENQNLYLVGASKIRMLLGAEAVGLVKECNDNTMRAFTYRTRQNFKGFDDNNDDFLTMAECQFIIKHELENLRAKDEKMIPGYPQAKLYPGKSLLRRLLTSGIVIQVFPLHDSEALKKLEDTWYTRFALKYQPIDSIRGYFGETIALYFGFLEYFTFALIPMAVIGLPYYLFVWEDYDKYVIFASFNLIWSTVILELWKRGCANMTYRWGTLLMKRKFEEPRPGFHGVLGINSITGKEEPLYPSYKRQLRIYLVSLPFVCLCLYFSLYVMMIYFDMEVWALGLHENSGSEWTSVLLYVPSIIYAIVIEIMNRLYRYAAEFLTSWENHRLESAYQNHLILKVLVFNFLNCFASLFYIAFVLKDMKLLRQSLATLLITSQILNQIMESFLPYWLQRKHGVRVKRKVQALKADIDATLYEQVILEKEMGTYLGTFDDYLELFLQFGYVSLFSCVYPLAAAFAVLNNFTEVNSDALKMCRVFKRPFSEPSANIGVWQLAFETMSVISVVTNCALIGMSPQVNAVFPESKADLILIVVAVEHALLALKFILAFAIPDKPRHIQMKLARLEFESLEALKQQQMKLVTENLKEEPMESGKEKAT [ANO10]	53.2	51.9	-0.214	-0.181	-0.93	-1.12
